In patent US20040161798A1:

How the values were obtained:
His6Gal80, P04387 [1] = target: T1, His6Gal80, P04387; assay: dilution assay on TentaGel beads, Western blot
T1 chain: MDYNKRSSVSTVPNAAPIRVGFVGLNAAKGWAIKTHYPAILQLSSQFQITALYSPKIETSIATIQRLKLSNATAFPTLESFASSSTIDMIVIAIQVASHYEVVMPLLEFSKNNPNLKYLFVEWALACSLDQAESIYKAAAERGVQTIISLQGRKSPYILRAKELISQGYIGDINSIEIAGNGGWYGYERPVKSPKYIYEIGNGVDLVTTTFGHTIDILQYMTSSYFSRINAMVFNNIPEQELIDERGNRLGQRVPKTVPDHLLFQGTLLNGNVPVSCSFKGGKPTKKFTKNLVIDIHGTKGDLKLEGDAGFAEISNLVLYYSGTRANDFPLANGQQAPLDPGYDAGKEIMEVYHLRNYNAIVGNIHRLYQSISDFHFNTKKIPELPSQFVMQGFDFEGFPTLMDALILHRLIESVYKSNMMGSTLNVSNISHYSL

His6Gal80, P04387 [2] = target: T1, His6Gal80, P04387; assay: fluorescence polarization after adding excess unlabeled peptide
His6Gal80, P04387 [3] = target: T1, His6Gal80, P04387; assay: capture of dilute Gal80 (0.4 nM) by TentaGel-Gal80bp, Western blot
His6Gal80, P04387 [4] = target: T1, His6Gal80, P04387; assay: fluorescence polarization titration of fluorescein-labeled peptide in solution
His6Gal80, P04387 [5] = target: T1, His6Gal80, P04387; assay: capture of dilute Gal80 by TentaGel-Gal80bp, Western blot against a calibration blot
His6Gal80, P04387 [6] = target: T1, His6Gal80, P04387; assay: capture of Gal80 by 2 mg of TentaGel-Gal80bp at the higher protein concentrations, Western blot
His6Gal80, P04387 [7] = target: T1, His6Gal80, P04387; assay: fluorescence polarization in solution: fluorescein-labelled peptide titrated with Gal80 protein

YDQDMQNNTFDDLFWKEGHR (modifications not checked) [Gal80bp] was tested. Which bound protein left on the beads (percent of the original level) (His6Gal80, P04387 [1]) did it give?
Its bound protein left on the beads (percent of the original level) is 50%.

What about the half-life of the complex in solution (His6Gal80, P04387 [2]) of the same binder?
Its half-life of the complex in solution is < 10 s.

What about the percent of the protein bound to the beads (His6Gal80, P04387 [3]) of the same binder?
The percent of the protein bound to the beads was 100%.

And the Kd (His6Gal80, P04387 [4])?
Its Kd is 300 nM.

And the Kd (His6Gal80, P04387 [5])?
The Kd was < 0.4 nM.

And the amount of protein retained on the beads (His6Gal80, P04387 [6])?
The amount of protein retained on the beads was 50 ng.

And the Kd (His6Gal80, P04387 [7])?
The Kd was 200 nM.
